This assay addresses GmPUB13(252-630), purified protein (soybean (Glycine max)). As to the kind of experiment: ITC. A general note: Isothermal titration calorimetry measures the heat released or taken up as one component is titrated into another.

As to “Avr1d, purified protein (ITC and gel filtration) (natural protein)”, the dissociation constant Kd (in general, a measure of binding affinity in units of concentration) was determined as 89 nM.

(Values after paper doi:10.1101/2020.09.19.304535.)
